Results taken from patent publication US20240043507A1 (RQ BIOTECHNOLOGY, published 2024).
“And” between values parts separate entries of the source, which are not always exact repeats. Identical values can stand only once.

B1: antibody 170 (antibody, V domains shown)
VH: QVQLVESGAEVKKPGESLKISCKGSGYSFTSYWIVWVRQMPGKGLEWMGIIYPGDSDTKYSPSFQGQVSISADKPISTAYLQWSRLKASDTAMYYCARLGNWLVDYWGQGTLVTVSS
VL: DIVMTQSPLSLSVTPGQPASISCKSSQSLLHSDGKTYLYWYLQKPGQPPQLLMYEVSNRFSGVPDRFSGSGSGTDFTLKISRVESEDVGVYYCMQSIQLPRGITFGQGTRLEIK
B2: antibody 150 (antibody, V domains shown)
VH: QVQLVESGGGLIQPGGSLRLSCAASGVTVSSNYMSWVRQAPGKGLEWVSIIYSGGTTYYADSVKGRFTISRDSSMNTLYLQMNSLRAEDTAVYYCARDLMVYGIDVWGQGTTVTVSS
VL: EIVMTQSPSSLSASVGDRVTITCRASQGISSYLAWYQQKPGKAPKLLIYAASTLQSGVPSRFSGSGSGTDFTLTISSLQPEDFATYYCQQLDSYPPGYTFGQGTKVDIK
B3: antibody 253H165L (antibody, V domains shown)
VH: not shown
VL: DIVMTQSPGTLSLSPGERATLSCRASQSVRSSYLAWYQQKPGQAPRLLIYGASRRGTGIPDRFSGSGSGTDFTLTISRLEPEDFAVYYCQQYGSSPWTFGQGTKVEIK
B4: antibody 165 (antibody, V domains shown)
VH: QVQLVQSGPEVKKPGTSVKVSCKASGFTFTSSAVQWVRQARGQRLEWIGWIVVGSGNTNYAQKFQESVTITRDMSTSTAYMELSSLRSEDTAVYYCAAPHCIGGSCHDAFDIWGQGTMVTVSS
VL: DIVMTQSPGTLSLSPGERATLSCRASQSVRSSYLAWYQQKPGQAPRLLIYGASRRGTGIPDRFSGSGSGTDFTLTISRLEPEDFAVYYCQQYGSSPWTFGQGTKVEIK
notes: also called mAb 165
B5: antibody 158 (antibody, V domains shown)
VH: EVQLLESGGDLIQPGGSLRLSCAASGVTVSSNYMSWVRQAPGKGLEWVSIIYPGGSTFYADSVKGRFTISRDNSKNTLYLQMHSLRAEDTAVYYCARDLGSGDMDVWGKGTTVTVSS
VL: DIVMTQSPSFLSASVGDRVTITCRASQGISSYLAWYQQKPGKAPKLLIQAASTLQSGVPSRFSGSGSGTEFTLTISSLQPEDFATYYCQQLNSYRYTFGQGTKVEIK
notes: also called mAb 158
B6: antibody 222 (antibody, V domains shown)
VH: EVQLVESGGGLIQPGGSLRLSCAASGLTVSSNYMSWVRQAPGKGLEWVSVIYSGGSTFYADSVKGRFTISRDNSKNTLYLQMNSLGAEDTAVYYCARGEGSPGNWFDPWGQGTLVTVSS
VL: DVVMTQSPGTLSLSPGERATLSCRASQSVPSSYLAWYQQKPGQAPRLLIYGASTRATGIPDRFSGSGSGTDFTLTISRLEPEDFAVYYCQHYDTSPRFGGGTKVDIK
B7: antibody 175 (antibody, V domains shown)
VH: EVQLVESGGGLIQPGGSLRLSCAASGLTVSRNYMSWVRQAPGKGLEWVSLIYSGGSTYYADSVKGRFTISRDNSKNTLYLQMNSLRAEDTAVYYCARDLRGEVWGQGTMVTVSS
VL: not shown
notes: also called mAb 175

Assays:
Assay in all cases: cell-based or functional assay
[1] = target: spike protein of SARS-CoV-2 strain B.1.1.7 (SARS-CoV-2, UniProt P0DTC2 14-1273)
[2] = target: spike protein of SARS-CoV-2 strain Victoria (SARS-CoV-2/human/AUS/VIC01/2020) (SARS-CoV-2, UniProt P0DTC2 14-1273)
[3] = target: spike protein of SARS-CoV-2 strain P.1 (SARS-CoV-2, UniProt P0DTC2 14-1273)
[4] = target: spike protein of SARS-CoV-2 strain B.1.351 (SARS-CoV-2, UniProt P0DTC2 14-1273)

Row | Binder | FRNT50 ratio B.1.1.7/Victoria [1] | IC50 (FRNT neutralisation) [1] | IC50 (FRNT neutralisation) [2] | FRNT50 ratio P.1/Victoria [3] | IC50 (FRNT neutralisation) [3] | FRNT50 ratio B.1.351/Victoria [4] | IC50 (FRNT neutralisation) [4]
1 | B1 | 4.2 | 0.105 µg/mL | 0.025 µg/mL | > 402 | > 10 µg/mL | > 402 | > 10 µg/mL
2 | B2 | 12 | 0.139 µg/mL | 0.012 µg/mL | 3.4 | 0.04 µg/mL | 30 | 0.35 µg/mL
3 | B3 | – | 0.006 µg/mL | 0.003 µg/mL | – | 0.019 µg/mL | – | 0.013 µg/mL
4 | B4 | – | 0.212 µg/mL | 0.034 µg/mL | – | 0.241 µg/mL | – | 0.054 µg/mL
5 | B5 | – | 0.254 µg/mL | 0.031 µg/mL | – | > 10 µg/mL | – | > 10 µg/mL
6 | B6 | – | 0.014 µg/mL and 0.011 µg/mL | 0.019 µg/mL and 0.017 µg/mL | – | 0.008 µg/mL and 0.009 µg/mL | – | 0.017 µg/mL and 0.016 µg/mL
7 | B7 | – | 0.575 µg/mL | 0.026 µg/mL | – | 3.88 µg/mL | – | > 10 µg/mL
